Results published in paper doi:10.1101/2024.07.19.604350.

What was measured:
[1] = biological target: 9C2 (Vγ5Vδ1) γδ TCR/CD3 complex, full length (human) (UniProt B7Z8K6); assay: cryo-EM structure
[2] = biological target: G115 (Vγ9Vδ2) γδ TCR/CD3 complex, full length (human) (UniProt A0JD36); assay: cryo-EM structure
UniProt A0JD36, sequence (A0JD36 whole entry, looked up, stated change not applied, one chain of several): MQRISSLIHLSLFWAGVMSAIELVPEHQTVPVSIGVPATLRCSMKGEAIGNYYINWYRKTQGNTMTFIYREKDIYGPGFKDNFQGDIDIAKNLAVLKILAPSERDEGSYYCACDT

| stoichiometry N [1] | stoichiometry N [2] | Substance |
| --- | --- | --- |
| 2 |  | 9C2 (Vγ5Vδ1) γδ TCR/CD3 complex, full length (from UniProt B7Z8K6;P0CF51;P07766;P09693;P04234;P20963) |
|  | 2 | OKT3 Fab |
